Assay results from patent US20050214312A1.

Biological target: recombinant human or murine heat shock protein 70 (hsp70) (human or murine)

Binder RGYVYQGL (modifications not checked) [RGYVYQGL (VSV nucleoprotein amino acids 52-59)] has a Kd of 82 µM.
